These results are taken from article PMC4141501.

Like-named read-outs stand apart in the source and are kept apart here.

In assay [1] the target is human EWI2 wild-type with palmitate-free cytoplasmic cysteines (after hydroxylamine or 2BP) (human) (UniProt Q969P0). The experiment in a line: cross-linking.
The target is the same in assay [2]. Description: cross-linking. The source holds these as a separate data set.

In the case of “human EWI2 wild-type with palmitate-free cytoplasmic cysteines (after hydroxylamine or 2BP) (from UniProt Q969P0 28-613) (natural protein)”, the percent of EWI2 molecules dimerized in assay [1] was found to be 11%; in assay [2] it was 78%. Moreover, the stoichiometry N in assay [1] and in assay [2] was 2 in each case.
